Assay results reported in publication doi:10.1101/102822.
Like-named read-outs stand apart in the source and are kept apart here.

How the values were obtained:
[1] = target: Human VEGFR-1 D1-7 (residues 1-750), full-length extracellular domain (human) (UniProt P17948); assay: ITC
[2] = target: Human VEGFR-1 D1-3 (residues 1-339) (human) (UniProt P17948); assay: ITC
[3] = target: Human VEGFR-1 D1-7 (residues 1-750), full-length extracellular domain (human) (UniProt P17948); assay: SEC-MALS
[4] = target: Human VEGFR-1 D1-6 (residues 1-660) (human) (UniProt P17948); assay: crystal structure
[5] = target: Human VEGFR-1 D2-7 (residues 132-750) (human) (UniProt P17948); assay: crystal structure

## Human VEGF-A121
[1]; ligand
  Kd: 1.7 nM

## Human VEGF-A121 (ligand)
[2]
  Kd: 50 nM
[1]
  Kd: 2 nM
[3]
  stoichiometry N: 1
[4]
  stoichiometry N: 1
[5]
  stoichiometry N: 1
